Results: US20200297764A1 (Memorial Sloan Kettering, published 2020)

Assays:
[1] = biological target: CD33 on human CD33(+) cells (human, UniProt P20138 18-364); assay: cell-based or functional assay
[2] = biological target: T1, CD3 on activated T cells (human, UniProt P07766 23-207); assay: flow cytometry on activated T cells, 4 C, secondary antibody, MFI
T1 construct: whole, on cells; CD3 complex on cells; the rest of the complex is not described; also called CD3 receptor
Method: FIG. 13 depicts binding properties of an exemplary CD33-CD3 IgG-scFv (BsAb) to CD33 and CD3. (A) MOLM13 cells were reacted for 30 min at 4 C.° using decreasing doses of hM195 (anti-CD33 IgG), the heterodimeric BsAb, and an exemplary CD33-CD3 IgG-scFv. Cells were washed and immunostained with a fluorochrome-conjugated secondary antibody and mean fluorescence intensity (MFI) assayed by flow cytometry. (B) MOLM13 cells were reacted for 30 min, 4 h or 24 h at 37 C.° or 4 C.° with 1 μg/ml of hM195 (anti-CD33 IgG), the heterodimeric IgG BsAb, and exemplary CD33-CD3 IgG-scFv. Cells were washed and immunostained with a fluorochrome-conjugated secondary antibody at 4 C.°. After washing the unbound antibody, MFI was analyzed by flow cytometry. (C) Activated T cells were reacted for 30 min at 4 C.° with decreasing doses of hOKT3 (anti-CD3 IgG), the heterodimeric BsAb, and exemplary CD33-CD3 IgG-scFv. Cells were washed and immunostained with a fluorochrome-conjugated secondary antibody and MFI analyzed measured by flow cytometry.

Chain of CD33 on human CD33(+) cells (P20138 18-364): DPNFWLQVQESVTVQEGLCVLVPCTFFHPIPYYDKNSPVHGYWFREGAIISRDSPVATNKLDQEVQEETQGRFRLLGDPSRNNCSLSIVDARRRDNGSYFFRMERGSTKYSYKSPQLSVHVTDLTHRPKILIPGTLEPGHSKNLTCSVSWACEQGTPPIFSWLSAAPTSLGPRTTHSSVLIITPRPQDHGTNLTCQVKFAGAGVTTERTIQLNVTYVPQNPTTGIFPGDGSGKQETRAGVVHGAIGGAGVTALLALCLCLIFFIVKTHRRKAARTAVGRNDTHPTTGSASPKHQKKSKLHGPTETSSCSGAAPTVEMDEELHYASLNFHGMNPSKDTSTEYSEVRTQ
T1 sequence (P07766 23-207): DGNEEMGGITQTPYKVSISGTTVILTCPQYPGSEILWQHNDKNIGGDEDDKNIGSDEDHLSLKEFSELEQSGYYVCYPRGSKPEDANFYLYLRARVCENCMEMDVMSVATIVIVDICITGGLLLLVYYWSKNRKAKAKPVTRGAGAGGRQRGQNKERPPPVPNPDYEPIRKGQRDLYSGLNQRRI

TDCC potency, fold against the heterodimer, 4 h chromium release assay, THP1 and MOLM13 cells [1]: 12 fold | fold weaker binding (against heterodimer) [2]: 2.5 fold | fold weaker binding (against huOKT3) [2]: 27 fold
B1: CD33-BsAb (BiClone 133), exemplary CD33-CD3 IgG-scFv bispecific antibody agent (bispecific antibody)
heavy: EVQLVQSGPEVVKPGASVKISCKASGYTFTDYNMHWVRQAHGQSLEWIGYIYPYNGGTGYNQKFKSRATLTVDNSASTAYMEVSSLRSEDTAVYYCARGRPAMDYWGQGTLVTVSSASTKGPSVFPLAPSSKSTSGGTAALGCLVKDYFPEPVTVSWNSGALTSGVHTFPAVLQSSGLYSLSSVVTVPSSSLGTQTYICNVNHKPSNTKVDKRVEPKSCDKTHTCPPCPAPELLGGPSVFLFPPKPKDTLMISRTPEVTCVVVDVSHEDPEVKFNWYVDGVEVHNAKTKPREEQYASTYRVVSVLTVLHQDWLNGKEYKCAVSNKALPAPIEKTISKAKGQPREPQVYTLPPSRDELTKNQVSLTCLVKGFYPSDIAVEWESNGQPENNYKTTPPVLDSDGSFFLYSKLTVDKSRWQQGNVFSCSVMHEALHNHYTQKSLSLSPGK
light: EIVLTQSPATLSVSLGERATISCRASESVDNYGISFMNWFQQKPGQPPRLLIYAASNQGSGVPARFSGSGPGTDFTLTISSMEPEDFAMYFCQQSKEVPWTFGGGTKLEIKRTVAAPSVFIFPPSDEQLKSGTASVVCLLNNFYPREAKVQWKVDNALQSGNSQESVTEQDSKDSTYSLSSTLTLSKADYEKHKVYACEVTHQGLSSPVTKSFNRGECTSGGGGSGGGGSGGGGSQVQLVQSGGGVVQPGRSLRLSCKASGYTFTRYTMHWVRQAPGKCLEWIGYINPSRGYTNYNQKFKDRFTISRDNSKNTAFLQMDSLRPEDTGVYFCARYYDDHYSLDYWGQGTPVTVSSGGGGSGGGGSGGGGSGGGGSGGGGSGGGGSDIQMTQSPSSLSASVGDRVTITCSASSSVSYMNWYQQTPGKAPKRWIYDTSKLASGVPSRFSGSGSGTDYTFTISSLQPEDIATYYCQQWSSNPFTFGCGTKLQITR
notes: IgG-scFv format, tetravalent (2+2): two arms to CD33 and two to CD3; also called CD33-specific BsAb; anti-CD33 BsAb
EC50 of T cell cytotoxicity (lysis of MOLM13 cells) [1]: 2.4 pM | EC50 of T cell cytotoxicity, 4-hour 51Cr release assay, HL60 AML cells [1]: 1.1 pM
